Patent US20220112288A1 (published 2022)

Tests used:
[1] = biological target: T1, Recombinant human CD4 (R&D Systems, Cat. 10327-CD) (human, UniProt P01730 26-390, limits assumed); test: BLI Octet, mAb on anti-mouse Fc sensor, CD4 100/50/25 nM, 1:1 global fit;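 also: antibodies loaded at 10 µg/mL, an unrelated mouse-derived antibody served as internal reference control, association and dissociation phases fitted after Savitzky-Golay smoothing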
T1 construct: Soluble analyte in the Octet assay

[2] = biological target: T2, Recombinant human CD4 (R&D Systems, Cat. 10327-CD) (human, UniProt P01730 26-390, limits assumed); test: BLI (Octet Red384), purified antibody on anti-mouse Fc sensors, human CD4 100/50/25 nM, global 1:1 fit;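 also: antibodies loaded at 10 µg/mL, curves fitted across association and dissociation phases, with an unrelated mouse-derived antibody serving as internal reference control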
T2 construct: Bought protein; also called huCD4

B1: 75110_01D24A (antibody, V domains shown)
VH: QVQLQQWGAGLLKPSETLSLTCAVYGGSFSGYYWSWIRQPPGKGLEWIGEINHSGSTNYNPSLKSRVTISVDTSENQFSLKLNSVTAADTAVYYCARLVNWFDPWGQGTLVTVSS
VL: EIQMTQSPSSVSASVGDRVTITCRASQDISNWLAWYQQKPGKAPNLLIFAASSLQTGVPSRFSGSGSGTDFTLTISSLQPDDFATYYCQQANSFPYSFGQGTNLGIK
notes: Tested as antibody purified from AlivaMab Mouse hybridoma supernatant (captured by anti-mouse IgG Fc)
Kd [1]: 13 nM | Response [1]: 0.27 | koff [1]: 0.0017 s⁻¹ | kon [1]: 130000 M⁻¹ s⁻¹

B2: 75110_13P21A (antibody, V domains shown)
VH: QVQLQQWGAGLLKPSETLSLTCAVSGGSFSGYYWSWIRQPPGKGLEWIGEINHSGSTNCNPSLKSRVTISVDTSNNQFSLKLSSVTAADTAVYYCARVLNYFDYWGQGTLVTVSS
VL: DIQMTQSPSSVSASVGDRVTITCRASPDIANWLAWYQQKPGKAPELLIYAASSLQSGVPSRFSGSGSGTDFTLTISSLQPEDFATYFCQQANSFPLTFGGGTKVESK
notes: Tested as antibody purified from AlivaMab Mouse Kappa hybridoma (human V regions, kappa light chain, mouse Fc captured by anti-mouse Fc sensors)
Kd [2]: 3 nM | Response [2]: 0.17 | koff [2]: 0.00029 s⁻¹ | kon [2]: 95000 M⁻¹ s⁻¹

B3: 75110_12K21A (antibody, V domains shown)
VH: QVQLQQWGAGLLKPSETLSLTCAVSGGSFSGYYWSWIRQPPGKGLEWIGEINHSGSTNCNPSLKSRVTISVDTSNNQFSLKLSSVTAADTAVYYCARVLNYFDYWGQGTLVTVSS
VL: DIQMTQSPSSVSASVGDRVTITCRASPDIANWLAWYQQKPGKAPELLIYAASSLQSGVPSRFSGSGSGTDFTLTISSLQPEDFATYFCQQANSFPLTFGGGTKVESK
notes: as for B2
Kd [2]: 1.8 nM | Response [2]: 0.22 | koff [2]: 0.00021 s⁻¹ | kon [2]: 110000 M⁻¹ s⁻¹

B4: 75110_13C13A (antibody, V domains shown)
VH: QVQLQQWGAGLLKPSETLSLTCAVSGGSFSGYYWSWIRQPPGKGLEWIGEINHSGSTNCNPSLKSRVTISVDTSKNQFSLKLSSVTAADTAMYYCARVLNFFDYWGQGTLVTVSS
VL: DIQMTQTPSSVSASVGDRVTITCRASPGISNWLAWYQQKPGKAPELLIYAASSLQSGVPSRFSGSGSGTDFTLTISSLQPEDFATYFCQQANSFPLTFGGGTKVESK
notes: as for B2
Kd [2]: 11 nM | Response [2]: 0.21 | koff [2]: 0.0013 s⁻¹ | kon [2]: 120000 M⁻¹ s⁻¹

B5: 75110_03L12A (antibody, V domains shown)
VH: QVQLQQWGAGLLKPSETLSLTCAVYGGSFSGYYWSWIRQPPGKGLEWIGEINHSGSTNYNPSLKSRVTISVDTSENQFSLTLISVTAADTAVYYCVRLINWFDPWGQGTLVTVSS
VL: DIQMTQSPSSVSASVGDRVTITCRASQDISNWLAWYQQKPGKAPKLLIFAASSLQSGVPSRFSGSGSGTDFTLTISSLQPDDFATYYCQQANSFPYTFGQGTNLGIK
notes: as for B1
Kd [1]: 5.5 nM | Response [1]: 0.22 | koff [1]: 0.00076 s⁻¹ | kon [1]: 140000 M⁻¹ s⁻¹

B6: 75110_14I16A (antibody, V domains shown)
VH: QVQLQESGPGLVKPSETLSLTCTVSNGSISSYYWSWIRQSAGKGLEWIGRIYTSGSTNYNPSLKSRVTMLVDTSKNQFSLKLSSVTAADTAVYYCARDREDYYYYGMDVWGQGTTVTVSS
VL: DIQMTQSPSSLSASVGDRVTITCQASHDISNYLNWYQQKPGKAPKLLLYYASNLETGVPSRFSGSGSGTDFTFTITSLQPEDIGTYSCQQYDNLPLTFGGGTKVEIK
notes: Tested as antibody purified from AlivaMab Mouse Kappa hybridoma (human V regions, kappa light chain, mouse Fc captured by anti-mouse Fc sensors); also called 75110_14116A
Kd [2]: 10 nM | Response [2]: 0.14 | koff [2]: 0.0017 s⁻¹ | kon [2]: 160000 M⁻¹ s⁻¹

B7: 75110_08F20A (antibody, V domains shown)
VH: QVQLQESGPGLVKPSETLSLTCSVSGGSISTYYWSWIRQPAGKGLEWIGRICTTENTNYNPSLKSRVTMSIDSSKNQFSLKLSSVTAADTAVYYCARDLERLNYYGMDVWGQGATVTVSS
VL: DIQMTQSPSSLSASVGDRVTITCQASQDISKYLNWYQQKPGIAPKLLIYDASNLETGVPSRFSGSGSGTDFTFTISSLQPEDFATYYCQQYDSLPITFGQGTRLEIK
notes: as for B2
Kd [2]: 8.4 nM | Response [2]: 0.22 | koff [2]: 0.0014 s⁻¹ | kon [2]: 170000 M⁻¹ s⁻¹

B8: 75110_14N19A (antibody, V domains shown)
VH: QVQLQESGPGLVKPSETLSLTCTVSGGSISRYYWSWIRQPAGKGLEWIGRICTSENPNYNPALKSRVTMSVDTSKNQFSLKLSSVTAADTAVYYCARELERLNYYGMDVWGQGTTVTVSS
VL: DIQMTQFPSSLSASVGDRVTITCQASQDISNYLNWYQQKPGKAPKLLIYDASNLESGVPSRFSGRGSGTDFTFTISSLQPEDFATFYCQQYDTLPITFGQGTRLEIK
notes: as for B2
Kd [2]: 11 nM | Response [2]: 0.17 | koff [2]: 0.0014 s⁻¹ | kon [2]: 130000 M⁻¹ s⁻¹

B9: 75110_08G08A (antibody, V domains shown)
VH: QVQLQESGPGLVKPSETLSLTCSVSGGSISTYYWSWIRQPAGKGLEWIGRICTTENTNYNPSLKSRVTMSIDSSKNQFSLKLSSVTAADTAVYYCARDLERLNYYGMDVWGQGATVTVSS
VL: DIQMTQSPSSLSASVGDRVTITCQASQDISNYLNWYQQKPGIAPKLLIYDASNLETGVPSRFSGSGSGTDFTFTISSLQPEDIATYYCQQYDSLPITFGQGTRLEIK
notes: as for B2
Kd [2]: 20 nM | Response [2]: 0.15 | koff [2]: 0.0035 s⁻¹ | kon [2]: 180000 M⁻¹ s⁻¹

B10: 75110_14G10A (antibody, V domains shown)
VH: EVQLVESGGGLVKPGGSLRLSCAASGFTFSSYSMNWVRQAPGKGLEWVSFISSSSSYIYYADSVKGRFTISRDNAKNSLYLQMNSLRAEDTAVYYCARERGDDYGDYEGAFDIWGQGTMVTVSS
VL: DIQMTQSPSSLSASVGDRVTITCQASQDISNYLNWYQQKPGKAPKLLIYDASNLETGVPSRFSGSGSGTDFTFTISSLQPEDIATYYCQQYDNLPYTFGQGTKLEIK
notes: as for B2
Kd [2]: 0.38 nM | Response [2]: 0.19 | koff [2]: 0.00019 s⁻¹ | kon [2]: 500000 M⁻¹ s⁻¹

B11: 75110_07N04A (antibody, V domains shown)
VH: QVQLQESGPGLVKPSETLSLTCSVSGVSSTSFYWSWIRQPAGKGLDWIGRIYTSGSTNYNPSLKSRVTMSVDTSKNQFSLKLSSVTAADTAVYYCARDPGYSDAFAIWGQGTMVTVSS
VL: not shown
notes: as for B2
Kd [2]: < 0.001 nM | Response [2]: 0.2 | koff [2]: < 1e-07 s⁻¹ | kon [2]: 84000 M⁻¹ s⁻¹

B12: 75110_01A06A (antibody, V domains shown)
VH: EVQLVESGGGLVQPGGSLRLSCAASGFTFSSYWMSWVRQAPGKGLEWVANINEDGNEKYYVDSVKGRLTISRDNAKNSLYLQMNSLRAEDTAVYFCAREGGQWLSLDYWGQGALVTVSS
VL: DIQMTQSPSSVSASVGDRVSITCRASQGISSWLAWYQQKPGKAPKILIYGASSLQSGVPSRFSGSGSGTDFTLTISSLQPEDFATYYCQQANSFPWTFGQGTKVEIK
notes: as for B1
Kd [1]: 14 nM | Response [1]: 0.36 | koff [1]: 0.0014 s⁻¹ | kon [1]: 100000 M⁻¹ s⁻¹

B13: 75110_01C18A (antibody, V domains shown)
VH: EVQLVESGGGLIQPGGSLRLSCAASGFTVSSNYMNWVRQAPGKGLEWVSVIYAGDNTYSADSVKGRFTISRDNSNNTLCLQMNSLRAEDTAVYYCAREGGTTGAFDIWGQGTMVTVSS
VL: DIQMTQSPSSVSASVGDRVTITCRASQGINSWLAWYQQKPGKAPKLLIYAASSLQSGVPSRFSGSGSGTDFTLTISSLQPEDFATYYCQQGNSFPYTFGQGTKLEIK
notes: as for B1
Kd [1]: 24 nM | Response [1]: 0.13 | koff [1]: 0.0047 s⁻¹ | kon [1]: 200000 M⁻¹ s⁻¹

B14: 75110_13P22A (antibody, V domains shown)
VH: QVQLQQWGAGLLKPSETLSLTCAAYGGSFSGYYWSWIRQSPGKGLEWIGEINQSGNTNYNPSLKSRVTISADTSKNQFSLKLSSVTAADTAVYYCARVLNWFDYWGQGILVTVSS
VL: DIQMTQSPSSVSASVGDRVTITCRASQGISDWLAWYQQKSGKAPDLLIFAASSLQSGVPSRFSGSGSGTDFTLTISSLQPEDFATYYCQQANSFPYTFGQGTKLEIK
notes: as for B2
Kd [2]: 14 nM | Response [2]: 0.16 | koff [2]: 0.0012 s⁻¹ | kon [2]: 86000 M⁻¹ s⁻¹

B15: 75110_02N15A (antibody, V domains shown)
VH: EVQLVESGGGLVQPGGSLRLSCAASGFTFSSYWMSWVRQAPGKGLEWVANINEDGNEKYYVDSVKGRFTISRDNAKNSLFLQMNSLRAEDTAVYFCAREGGQWLALDHWGQGALVTVSS
VL: DIQMTQSPSSVSASVGDRVTITCRASQGISSWLAWYQQKPGKAPKFLISGASSLQSGVPSRFSGSGSGTDFTLTISSLQPEDFATYYCQQANSFPWTFGQGTKVEFK
notes: as for B1
Kd [1]: 11 nM | Response [1]: 0.25 | koff [1]: 0.0017 s⁻¹ | kon [1]: 160000 M⁻¹ s⁻¹

B16: 75110_04K10A (antibody, V domains shown)
VH: EVQLVESGGGLVQPGGSLRLSCAASGFTFSSYWMSWVRQAPGKGLEWVANINQDGSEKYYVDSVKGRFTISRDNAKNSLYLQLNSLRAEDTAMYYCAREGGQWLSLDYWGQGTLVTVSS
VL: DIQMTQSPSSVSASVGDRVTITCRASQGISSWLAWYQQKPGKAPKVLIYGVSSFQSGVPSRFSGSGSGTDFILTISSLQPEDFATYYCQQANSFPWTFGQGTKVEIK
notes: as for B1
Kd [1]: 110 nM | Response [1]: 0.1 | koff [1]: 0.0042 s⁻¹ | kon [1]: 39000 M⁻¹ s⁻¹

B17: 75110_03D16A (antibody, V domains shown)
VH: EVQLVESGGGLVQPGGSLRLSCAASGFTFSSYWMSWVRQAPGKGLEWVANINQDGGEKYYVDSVKGRFTISRDNAKNSLYLQMNSLRAEDTAVYYCVREGGQWLALDYWGQGTLVTVSS
VL: DIQMTQSPSSVSASVGDRVTITCRASQGISSWLTWYQQKPGKAPKFLIYAASSLQSGVPSRFSGSGFGTDFTLTISSLQPEDFATYYCQQANSFPWTFGQGTKVEIK
notes: as for B1
Kd [1]: 10 nM | Response [1]: 0.05 | koff [1]: 0.0008 s⁻¹ | kon [1]: 78000 M⁻¹ s⁻¹

B18: 75110_08A13A (antibody, V domains shown)
VH: EVQLVESGGGLVQPGGSLRLSCAASGFIFSSYWMSWVRQAPGKGLEWVANIKQDGSEKYYMDSVKGRFTISRDNAKNSLYLQMNSLRAEDTAVYYCARDNSYYYYGMDVWGQGTTVTVSS
VL: AIQMTQSPSSLSASVGDRVTITCRASQGIRDDLGWYQQKPGKAPKLLIFAASSLQSGVPSSFSGSGSGTDFTLTISSLQPEDFATYYCLHHYNYPYTFGQGTKLEIK
notes: as for B2
Kd [2]: 6.6 nM | Response [2]: 0.12 | koff [2]: 0.00078 s⁻¹ | kon [2]: 120000 M⁻¹ s⁻¹

B19: 75110_10K21A (antibody, V domains shown)
VH: EVQLVESGGGLVQPGGSLRLSCAASGFTFSSYWMTWVRQAPGKGLEWVANIKQDGSEKYYVDSVKGRFTISRDNAKNSLYLQMNSLRAEDTAVYYCVRDRYDALDIWGQGTMVTVSS
VL: AIQMTQSPSSLSASVGDRVTITCRASQGIRNDLNWYQQKPGKAPKLLIYAASSLQSGVPSRFSGSGSGTDFTLTISSLQAEDFATYYCLKDYNYPYTFGQGTKLEIK
notes: as for B2
Kd [2]: 3.1 nM | Response [2]: 0.2 | koff [2]: 0.00049 s⁻¹ | kon [2]: 160000 M⁻¹ s⁻¹
